# Source: the supplement of paper PMC7877785
# ± gives the uncertainty stated by the source.
# Experiment: self-splicing fitness, log relative to wild type (ln ratio); higher = more splicing; Tetrahymena group I intron in knt gene, E. coli kanamycin selection, DiMSum; sequences stand for … in CUCUCU…GGAGGGAAAAGUUAUCAGGCAUGCACCUGGUAGCUAGUCUUUAAACCAAUAGAUUGCAUCGGUUUAAAAGGCAAGACCGUCAAAUUGCGGGAAAGGGGUCAACAGCCGUUCAGUACCAAGUCUCAGGGGAAACUUUGAGAUGGCCUUGCAAAGGGUAUGGUAAUAAGCUGACGGACAUGGUCCUAACCACGCAGCCAAGUCCUAAGUCAACAGAUCUUCUGUUGAUAUGGAUGCAGUUCACAGACUAAAUGUCGGUCGGGGAAGAUGUAUUCUUCUCAUAAGAUAUAGUCGGACCUCUCCUUAAUGGGAGCUAGCGGAUGAAGUGAUGCAACACUGGAGCCGCUGGGAACUAAUUUGUAUGCGAAAGUAUAUUGAUUAGUUUUGGAGUACUCGUGGUCG
# Outline: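 Library with all eight P1ex-region intron nucleotides randomised, intron inside the knt kanamycin-resistance gene on pET-22b(+), in E. coli BL21(DE3). Cells grew overnight at 37°C or 30°C on LB agar with or without 25 μg/mL kanamycin (plus 100 μg/mL carbenicillin, 50 μM IPTG, 0.2% rhamnose), in six replicate transformations. Pooled colonies were amplicon-sequenced on Illumina HiSeq 2500. DiMSum fitness is the error-weighted combination of wild-type-normalised replicate fold changes, kanamycin versus none.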
Sequence,self-splicing fitness (ln) (30 °C),self-splicing fitness (ln) (37 °C)
CAUGAGCAAUAUUACGGGGC,-4.13 ± 0.43,-2.35 ± 0.34
AUAGAGCAAUAUUACGCGGA,-1.35 ± 0.092,-1.48 ± 0.11
GUCCAGCAAUAUUACGCGCA,-0.0872 ± 0.1,0.23 ± 0.11
ACCUAGCAAUAUUACGAACC,-1.67 ± 0.16,-1.07 ± 0.19
CAUGAGCAAUAUUACGAUGA,-3.5 ± 0.2,-2.48 ± 0.15
CUGAAGCAAUAUUACGUCAG,-4.14 ± 0.2,-1.46 ± 0.14
AGGAAGCAAUAUUACGCUGU,-2.29 ± 0.29,
GGCCAGCAAUAUUACGAUGU,-2.4 ± 0.092,-1.92 ± 0.12
ACAUAGCAAUAUUACGGAAC,-3.66 ± 0.24,-2 ± 0.27
GUAGAGCAAUAUUACGAUUC,-0.192 ± 0.1,0.716 ± 0.14
AAUCAGCAAUAUUACGGGGU,-3.02 ± 0.17,-1.39 ± 0.12
UGUCAGCAAUAUUACGUGAG,-0.0851 ± 0.056,0.251 ± 0.072
UGGUAGCAAUAUUACGUGAG,-1.05 ± 0.092,0.0891 ± 0.11
AUCUAGCAAUAUUACGUACA,-1.73 ± 0.15,0.464 ± 0.17
GGAAAGCAAUAUUACGUACG,-0.792 ± 0.097,-0.786 ± 0.11
ACGCAGCAAUAUUACGUAGU,-2.76 ± 0.087,-1.92 ± 0.1
AACCAGCAAUAUUACGCGGC,-3.79 ± 0.2,-3.14 ± 0.23
GAGCAGCAAUAUUACGCCGG,-4.11 ± 0.39,-1.82 ± 0.3
AACGAGCAAUAUUACGCGGC,-2.71 ± 0.33,-2.15 ± 0.33
GACGAGCAAUAUUACGGGAU,-4.33 ± 0.28,-1.74 ± 0.18

Sequence,self-splicing fitness (ln) (30 °C),self-splicing fitness (ln) (37 °C)
GUUGAGCAAUAUUACGUACU,-2.91 ± 0.25,-2.15 ± 0.2
UAAAAGCAAUAUUACGAGUA,-1.26 ± 0.068,-0.418 ± 0.082
UUUCAGCAAUAUUACGAUAA,0.592 ± 0.13,0.707 ± 0.15
UAUAAGCAAUAUUACGGGCC,-2.99 ± 0.31,
GGAGAGCAAUAUUACGUACG,-2.56 ± 0.43,
UAGUAGCAAUAUUACGGCAG,-1.01 ± 0.11,-1.57 ± 0.14
UCGCAGCAAUAUUACGAAGC,-3.52 ± 0.27,-2.25 ± 0.25
GUGAAGCAAUAUUACGUUAU,-1.15 ± 0.08,-1.2 ± 0.11
UGCUAGCAAUAUUACGGUCG,0.0903 ± 0.098,0.362 ± 0.14
UGAGAGCAAUAUUACGUGGA,-3.18 ± 0.28,-2.95 ± 0.47
AUUAAGCAAUAUUACGUUAG,-2.76 ± 0.23,-3.12 ± 0.27
UGAUAGCAAUAUUACGGGGA,-3.16 ± 0.39,-1.8 ± 0.26
CAAAAGCAAUAUUACGUCGA,-2.16 ± 0.086,-1.06 ± 0.084
CGCGAGCAAUAUUACGGCCG,-3.16 ± 0.3,-1.35 ± 0.29
GAACAGCAAUAUUACGCUAG,-1.69 ± 0.098,-0.109 ± 0.092
GACGAGCAAUAUUACGGUAG,-4.01 ± 0.36,-2.18 ± 0.22
GUGUAGCAAUAUUACGCAAC,,-0.636 ± 0.23
UAGCAGCAAUAUUACGGGCA,-0.608 ± 0.11,-0.41 ± 0.1
ACUCAGCAAUAUUACGAUAA,-1.25 ± 0.078,-0.67 ± 0.097
